Experimental data from US20110105733A1 (Ablynx, published 2011).
Changes are numbered by the printed parent chain.

T1: human Notch-3 (human, UniProt Q9UM47 40-467, limits assumed)
T1 construct: Construct not described
T1 sequence (looked up): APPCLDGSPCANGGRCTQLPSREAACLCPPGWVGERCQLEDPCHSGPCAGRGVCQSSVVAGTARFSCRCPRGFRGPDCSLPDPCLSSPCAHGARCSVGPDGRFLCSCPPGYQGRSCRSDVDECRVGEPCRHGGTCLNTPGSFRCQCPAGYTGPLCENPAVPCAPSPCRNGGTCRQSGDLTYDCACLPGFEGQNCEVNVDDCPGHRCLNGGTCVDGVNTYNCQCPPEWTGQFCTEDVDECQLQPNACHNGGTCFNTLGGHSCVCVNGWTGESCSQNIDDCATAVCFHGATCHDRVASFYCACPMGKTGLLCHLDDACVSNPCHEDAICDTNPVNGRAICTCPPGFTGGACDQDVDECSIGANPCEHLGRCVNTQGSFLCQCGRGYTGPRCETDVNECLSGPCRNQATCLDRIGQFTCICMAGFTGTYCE

B1: 180A4 (VHH)
VHH: EVQLVESGGGLVQPGGSLRLSCAASGRTSSPIAMGWFRQAPGKEREFVSGITWSGAYTHYANSVKGRFTISRDSAKNTVYLQMNSLKPEDTAVYYCTTATNSTTGYDYWGQGTQVTVSS
B2: 180C1 (VHH)
VHH: EVQLVESGGDLVQPGGSLRLSCAASRTVFSISDMGWSRQAPGKERELVASISSDNYTVYADAAKGRFTISRDNSKNTVYLEMNSLKPDDTAVYYCRVVDPLRGKLYWGQGTQVTVSS
B3: 180B3 (VHH)
VHH: B2 VHH with R26G, I31N, S32N, I51F, S52T, D54G, N55G, Y56N, P100L
B4: 180F10 (VHH)
VHH: B2 VHH with R26A, I31N, S52T, S53T, N55G, Y56N, V58L, T68A, S70Y, P100L
B5: 180F4 (VHH)
VHH: EVQLVESGGGLVQAGDSLRLSCAVSGGSFSSYTMGWVRQAPGKEREAVASIWRSGGNTYYADSVKGRFTVSRDNAKHTVYLQMNSLKPEDTAVYYCAAASFAPGSRGYDYWGQGTQVTVSS
B6: 181B3 (VHH)
VHH: EVQLVESGGGLVQAGGSLRLSCVVSGSILSINTMDWYRQAPGKQREWFAGLSDGGRANYADSVKDRFTIARDNAKNTVYLQMNSLKPGDTAIYYCAADLWDRGATTGRYWGQGTQVTVSS
notes: detection there was with anti-VHH
B7: 181E3 (VHH)
VHH: EVQLVESGGGLVQPGGSLRLSCAASGFTFGDYAMNWVRQAPGKGLEWVSSISAGGYSTTYADSVKGRFTISRDNAKNTLYLQMNSLNPEDTAVYYCARGDWRYGSRGQGTQVTVSS
notes: Nanobody against human Notch-2, 'generated as above'
B8: 181D3 (VHH)
VHH: EVQLVESGGGLVQAGGSLRLSCAASTNVSSFNTMSWYRQSPRKQREWVATITDGDNTHYADSVKGRFTTSRDNAKNLLYLQMNSLKPEDTAVYYCTGWRATSGGSYGQGTQVTVSS
notes: as for B7
B9: 4H2 (VHH)
VHH: EVQLVESGGGLVQAGGSLRLSCATSGFTFSRFDMSWFRQAPGKQREFIATIFSGGDTDYIDSVKGRFTISRDNAKNTVYLQMNSLKPEDTAVYYCCPLGIEYAWGQGTQVTVSS
B10: 180F8 (VHH)
VHH: B2 VHH with A23T, A24T, R26G, S32N, E44G, D54E, N55G, Y56T, V58I
notes: Nanobody against human Notch-1
B11: 181D2 (VHH)
VHH: EVQLVESGGGLVQPGGSLRLSCAASGRINSMNWYRQAPGKEREWVASITSSGTTIYADSVKGRITISEDNAKNTVYLQMNSLKTEDTGVYYCAANLRNARGSYYGQGTQVTVSS
notes: as for B7
B12: 50C4 (VHH)
VHH: EVQLVESGGDLVQPGGSLRLSCAASGFTFSTYYMSWVRQAPGKGLEWVSGIYSDGSNTYYADSVKGRFTISRDNAKNTLYLQMNSLKSEDTAVYYCTRPVVVAGSPVSYEYDYIGQGTQVTVSS
notes: Nanobody against human Notch-3
B13: 50H9 (VHH)
VHH: B12 VHH
notes: as for B12
B14: 178A7 (VHH)
VHH: EVQLVESGGGLVQPGGSLRLSCATSGVIFSTAAMGWYRQAPGKSRVLVARMFSDGRTIYAESVKRRFTISRDNAKNTVYLQMNSLEPEDTAVYYCNALQFGAVYWGQGTQVTVSS
notes: Nanobody against rat Jagged-1; not shown: C-terminal c-myc tag and His6 tag coded by vector pAX50
B15: 178D9 (VHH)
VHH: EVQLVKSGGGLVQPGGSLRLSCAASGSIVSANLIGWYRQAPGKQREGVAFITSGGAINYADSVKGRFTISRDDAKNTVYLQMNSLKPEDTAIYYCNLRQLGNVYWAQGTQVTVSS
notes: as for B14
B16: 179F7 (VHH)
VHH: EVQLVESGGGLVQSGGSLSLSCAASGSVLRINDMGWYRQAPGKTREMVATITRSGVLNYTDSVKGRFTVSRDDAKNTVYLQMSSLKPEDTAVYSCFANIVIRSSGYFNRYWGQGTLVTVSS
notes: Nanobody against human DLL4; not shown: C-terminal c-myc tag and His6 tag coded by vector pAX50
B17: 179F6 (VHH)
VHH: EVQLVESGGGLVQAGGSLRLSCAASGSDFSGFLLGWYRQPPGKQRELIAQTTDGGRTNYGDSVKGRFTISRDNAKNTWYLQMDSLKPEDTGVYYCNTFPLTSWGQGTQVTVSS
notes: as for B16
B18: 179D12 (VHH)
VHH: EVQLVESGGGLVQAGGSLRLSCVASGDTSEIYDMGWFRQAPGKEREFVSSIHWGGRGTNYTDSVKGRFTISKDNAKNMVYLQMNSLKPEDTAVYYCAATRLIVYTPTGFRQYFDWGQGTQVTVSS
notes: as for B16
B19: 179A10 (VHH)
VHH: B18 VHH with Y80H
notes: as for B16
B20: 179E6 (VHH)
VHH: B18 VHH with V23I, G54R, K65E, T119A
notes: as for B16

Molecular target: T2, recombinant human Notch-1/Fc Chimera (R&D Systems Cat No 3647-TK) (human, UniProt P46531 19-526)
T2 construct: Bought reagent; also called rhNotch-1/hFc; rhNotch-1; not shown: human Fc (hFc)
Assay: ELISA: human Notch-1/Fc coated at 2 ug/mL, Nanobody series, detection by mouse anti-Myc tag and DAMPO, OD 490 nm
Procedure: After washing the plate was blocked using 4% Marvel skimmed milk in PBS for 30 minutes on shaker. A concentration series of Nanobody (1 to 1000 nM) was added in 100 microliter 2% Marvell/PBS and incubated for 1 h on shaker. […] PO was detected with 100 microliter OPD and stopped with 50 microliter H2SO4. Quantification was performed at 490 nm in a plate reader.

EC50 (read off the curve)	Binder
~7 nM	B1
~20 nM	B2
~6 nM	B3
~5 nM	B4
~20 nM	B5

Molecular target: T2, recombinant human Notch-1/Fc Chimera …
Assay: ELISA: human Notch-1 coated at 2 ug/mL, Nanobody series 25 pM-2000 nM, detection by rabbit anti-VHH and DAMPO, OD 490 nm
Procedure: (§1) After washing, the plate was blocked using 4% Marvel skimmed milk in PBS for 30 minutes on shaker. A concentration series of the Nanobodies in Table B-5 (25 pM to 2000 nM) was added in 100 microliter 2% Marvell/PBS and incubated for 1 h on shaker. After washing the Nanobodies were detected with 100 microliter 1:2500 R-anti-VHH (1:2500) in 2% Marvell/PBS and 100 microliter 1:5000 DAMPO in 2% Marvell/PBS for 1 h on shaker. PO was detected with 100 microliter OPD and stopped with 50 microliter H2SO4. Quantification was performed at 490 nm in a plate reader.

binding result	EC50 (read off the curve)	Binder
no binding (tested: 2000 nM)		B6
no binding (tested: 2000 nM)		B7
no binding (tested: 2000 nM)		B8
no binding (tested: 2000 nM)		B9
	10 to 16 nM	B10
no binding (tested: 2000 nM)		B11

Molecular target: T1, human Notch-3
Assay: ELISA: human Notch-3 coated at 2 ug/mL, Nanobody series 25 pM-2000 nM, detection by rabbit anti-VHH and DAMPO, OD 490 nm
Procedure: as §1

binding result	EC50 (read off the curve)	Binder
no binding (tested: 2000 nM)		B6
no binding (tested: 2000 nM)		B7
no binding (tested: 2000 nM)		B8
no binding (tested: 2000 nM)		B9
no binding (tested: 2000 nM)		B10
no binding (tested: 2000 nM)		B11
	~2 nM	B12
	~2 nM	B13

Molecular target: T3, rat Jagged-1 (rrJagged-1, R&D Systems Cat #599-JG) (rat, UniProt Q63722 34-1067)
T3 construct: extracellular domain; Bought reagent; also called non-biotinylated Jagged-1; cold-jagged1
Assay: ELISA: rat Jagged-1 (rrJagged-1) coated at 2 ug/mL, Nanobody series, detection by mouse anti-Myc tag and DAMPO, OD 490 nm
Procedure: Two rounds of phage display selection were performed similarly as described above. Binding assays were performed. In short: Maxisorp plate was coated with 100 ul 2 ug/ml of rrJagged-1 (R&D systems) in PBS O/N at 4 C. After washing the plate 4× with PBS the plate was blocked with 4% Marvel in PBS for 30 minutes on shaker. A concentration series of Nanobody (1-1000 nM) was added in 100 ul 2% Marvell/PBS and incubate for 1 hour on shaker. After washing the plate 4× with PBS the Nanobodies were detected with 100 ul 1:5000 Mouse-anti-MycTag in 2% Marvell/PBS for 1 hour and 100 ul 1:5000 DAMPO in 2% Marvell/PBS for 1 hour. After washing the DAMPO was detected with 100 ul OPD, stopped with 50 ul H2SO4 and quantification was performed at 490 nm in a plate reader.

EC50 (read off the curve)	binding result	Binder
~20 nM		B14
	binds	B15

Molecular target: human Notch-2 (R&D Systems Cat #3735-NT-050), Notch-2-Fc fusion (human) (UniProt Q04721)
Assay: ELISA: human Notch-2 coated at 2 ug/mL, Nanobody series 25 pM-2000 nM, detection by rabbit anti-VHH and DAMPO, OD 490 nm

EC50 (read off the curve)	Binder
2 nM	B6
5 nM	B8
5 nM	B11

Molecular target: T4, human DLL4 (rhDLL4, R&D Systems Cat #1506-D4-050) (human, UniProt Q9NR61 27-529)
T4 construct: extracellular domain; Bought reagent
Assay: ELISA: rhDLL4 coated at 5 ug/mL, Nanobody series, detection by mouse anti-Myc tag (9E10) and DAMPO, OD 490 nm
Procedure: Two rounds of phage display selection were performed similarly as described above. Binding assays were performed. In short: Maxisorp plate was coated with 100 ul 5 ug/ml of rhDLL4 (R&D systems) in PBS O/N at 4° C. After washing the plate was blocked with 4% MPBS for 30 minutes hour on shaker. A concentration series of Nanobody (1-1000 nM) was added in 100 ul 2% Marvell/PBS and incubate for 1 hour on shaker. Nanobody was detected with 100 ul 1:5000 Mouse-anti-MycTag (9E10) in 2% Marvell/PBS and with 100 ul 1:5000 DAMPO in 2% Marvell/PBS for 1 hour on shaker. After washing PO was detected with 100 ul OPD and stopped with 50 ul H2SO4. Quantification was performed at 490 nm in a plate reader.

T4 sequence (Q9NR61 27-529): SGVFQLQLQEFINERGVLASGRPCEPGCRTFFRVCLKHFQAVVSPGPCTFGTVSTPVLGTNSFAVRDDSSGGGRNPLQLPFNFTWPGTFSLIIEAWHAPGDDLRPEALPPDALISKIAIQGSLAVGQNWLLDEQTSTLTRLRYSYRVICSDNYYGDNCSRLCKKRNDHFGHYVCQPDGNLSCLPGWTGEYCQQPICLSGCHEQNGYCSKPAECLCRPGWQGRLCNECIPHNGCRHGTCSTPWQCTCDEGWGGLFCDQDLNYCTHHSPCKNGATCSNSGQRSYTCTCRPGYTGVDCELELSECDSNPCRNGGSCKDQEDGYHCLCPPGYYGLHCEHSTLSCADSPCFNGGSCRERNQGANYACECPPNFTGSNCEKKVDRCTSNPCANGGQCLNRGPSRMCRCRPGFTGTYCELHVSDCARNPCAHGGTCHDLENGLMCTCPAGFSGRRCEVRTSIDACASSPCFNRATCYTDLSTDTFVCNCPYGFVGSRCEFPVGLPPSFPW

binding result	Binder
binds	B16
binds	B17
binds	B18
binds	B19
binds	B20
